According to patent US20240109963A1:

Legend:
CD3 on Jurkat cells = experiment: flow cytometry on Jurkat cells, CD3 binding (T cell) (summary table)
[1] = target: full-length human Claudin 18.2 on MIA PaCa-2 cells (MIA PaCa-2+ Claudin 18.2) (human) (UniProt P56856); experiment: cell-based or functional assay
[2] = target: Claudin 18.2 on CHO cells (CHO+ Claudin 18.2) (UniProt P56856); experiment: flow cytometry on Claudin 18.2-expressing CHO cells (summary table)
Sequence of Claudin 18.2 on CHO cells (CHO+ Claudin 18.2) (P56856 other isoform, or with tags, fused parts or gaps limits assumed): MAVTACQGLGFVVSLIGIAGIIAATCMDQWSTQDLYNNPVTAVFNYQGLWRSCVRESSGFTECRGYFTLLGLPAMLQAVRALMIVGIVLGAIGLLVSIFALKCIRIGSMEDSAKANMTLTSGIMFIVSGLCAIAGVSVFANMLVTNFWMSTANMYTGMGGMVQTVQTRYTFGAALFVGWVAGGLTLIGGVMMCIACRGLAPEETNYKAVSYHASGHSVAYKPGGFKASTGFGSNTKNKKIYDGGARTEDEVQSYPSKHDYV

Sequence of full-length human Claudin 18.2 on MIA PaCa-2 cells (MIA PaCa-2+ Claudin 18.2) (human) (P56856 other isoform, or with tags, fused parts or gaps limits assumed): as above
Sequence of CD3 on Jurkat cells (P07766 23-207, chain 1 of 3): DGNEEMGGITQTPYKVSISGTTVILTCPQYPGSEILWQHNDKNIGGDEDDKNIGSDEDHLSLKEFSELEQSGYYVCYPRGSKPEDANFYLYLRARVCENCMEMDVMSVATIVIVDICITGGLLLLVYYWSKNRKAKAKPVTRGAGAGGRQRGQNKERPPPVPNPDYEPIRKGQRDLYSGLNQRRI
Sequence of CD3 on Jurkat cells (P09693 23-182, chain 2 of 3, further chain): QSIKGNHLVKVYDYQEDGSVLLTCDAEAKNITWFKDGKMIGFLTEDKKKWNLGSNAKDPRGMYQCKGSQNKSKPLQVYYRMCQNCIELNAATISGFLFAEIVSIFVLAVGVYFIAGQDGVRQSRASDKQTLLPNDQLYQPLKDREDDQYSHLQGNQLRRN
Sequence of CD3 on Jurkat cells (P04234 22-171, chain 3 of 3, further chain): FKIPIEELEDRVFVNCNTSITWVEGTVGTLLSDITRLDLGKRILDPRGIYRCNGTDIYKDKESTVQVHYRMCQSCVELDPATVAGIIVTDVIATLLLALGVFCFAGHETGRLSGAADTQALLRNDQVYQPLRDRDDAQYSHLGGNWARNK

## AMG910 analog (bispecific antibody)
CD3 on Jurkat cells
  EC50: 0.485 µg/mL
[1]
  T cell activation EC50 (CD69-positive cells): 0.0345 µg/mL
  T cell activation EC50 (CD69-positive cells), unpurified supernatant: 0.0577 µg/mL
[2]
  EC50: 0.047 µg/mL
